# Positions count from the first letter of the chain named.
# T1: human ARG1 (Homo sapiens, UniProt P05089)
# T1 construct: Avi tag (N); His10 (after a GGG linker) (C); made in house; host or cells: E. coli BL21 (DE3)
# T1 sequence (P05089 with tags, fused parts or gaps): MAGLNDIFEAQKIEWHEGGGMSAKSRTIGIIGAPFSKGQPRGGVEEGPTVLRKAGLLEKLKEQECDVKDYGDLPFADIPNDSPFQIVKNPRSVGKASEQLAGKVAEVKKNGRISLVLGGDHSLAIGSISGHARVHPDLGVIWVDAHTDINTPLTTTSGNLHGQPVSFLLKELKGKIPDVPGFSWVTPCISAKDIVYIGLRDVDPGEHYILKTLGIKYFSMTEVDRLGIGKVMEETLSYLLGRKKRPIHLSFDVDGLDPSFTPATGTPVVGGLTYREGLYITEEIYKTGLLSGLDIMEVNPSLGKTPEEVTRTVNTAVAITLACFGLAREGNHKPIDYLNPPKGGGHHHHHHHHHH
# T2: ARG2 (Homo sapiens, UniProt P78540)
# T2 sequence (P78540 23-354): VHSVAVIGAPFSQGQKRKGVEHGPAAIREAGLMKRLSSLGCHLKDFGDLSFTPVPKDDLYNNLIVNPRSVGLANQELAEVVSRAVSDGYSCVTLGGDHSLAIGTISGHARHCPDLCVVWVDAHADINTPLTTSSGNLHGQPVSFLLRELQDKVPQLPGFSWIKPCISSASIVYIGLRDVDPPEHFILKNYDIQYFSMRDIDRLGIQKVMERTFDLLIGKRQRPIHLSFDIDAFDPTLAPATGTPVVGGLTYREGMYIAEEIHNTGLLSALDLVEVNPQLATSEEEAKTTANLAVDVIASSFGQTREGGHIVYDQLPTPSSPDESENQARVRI
# B1: C0021061: anti-ARG2 antibody, first generation lead, VH SEQ ID NO: 62, VL SEQ ID NO: 67 (antibody, listed as Homo sapiens, V domains shown)
# VH: EVQLLESGGGLVQPGGSLRLSCAASGFTFSSYAMSWVRQAPGKGLEWVSAKPTDAGSTYYADSVKGRFTISRDNSKNTLYLQMNSLRAEDTAVYYCARLRADLGLYMDLWGRGTLVTVSS
# VL: QSVLTQPPSVSAAPGQKVTISCSGSSSNIGNHYVSWYQQLPGTAPKLLIYNTVYPKSGIPDRFSGSKSGTSATLGITGLQTGDEADYYCGTWDSSLSALVFGGGTKLTVL
# modifications: C0021061
# B2: C0021092: anti-ARG2 antibody, VH SEQ ID NO: 92, VL SEQ ID NO: 97 (antibody, listed as Homo sapiens, V domains shown)
# VH: B1 VH with S31R, K51H, P52T, T53H, D54S, A55P
# VL: B1 VL with T52S, Y54A, P55R, K56P
# modifications: C0021092
# B3: C0021065: anti-ARG2 antibody, VH SEQ ID NO: 72, VL SEQ ID NO: 77 (antibody, listed as Homo sapiens, V domains shown)
# VH: EVQLLESGGGLVQPGGSLRLSCAASGFTFSSYAMSWVRQAPGKGPEWVSAISGFSPYYADSVKGRFTISRDNSRNTLYLQMNSLRAEDTAVYYCARLRADLGLYMDLWGRGTLVTVSS
# VL: B1 VL with N51D, V53D, Y54H, P55M, K56A
# modifications: C0021065
# B4: C0021158 IgG: anti-ARG2 antibody, VH SEQ ID NO: 282, VL SEQ ID NO: 287; IgG and Fab versions carry these sequences (antibody, listed as Homo sapiens, V domains shown)
# VH: EVQLLESGGGLVQPGGSLRLSCAASGFTFRYEVAAWVRQAPGKGLEWVSAISGPIPKGYYADSVKGRFTISRDNSKNTLYLQMNSLRAEDTAVYYCARLRADLGLYMDLWGRGTLVTVSS
# VL: QSVLTQPPSVSAAPGQKVTISCSGSSSNIGNHYVSWYQQLPGTAPKLLIYDNSERTAGVPDRFSGSKSGTSATLGITGLQTGDEADYYCGTWDELTSNLVFGGGTKLTVL
# modifications: C0021158 IgG
# B5: C0021022: anti-ARG2 antibody, VH SEQ ID NO: 42, VL SEQ ID NO: 47 (antibody, listed as Homo sapiens, V domains shown)
# VH: B3 VH with R74K
# VL: B1 VL with N51D, T52N, V53S, Y54E, P55R, K56P
# modifications: C0021022
# B6: C0021181: anti-ARG2 antibody, VH SEQ ID NO: 342, VL SEQ ID NO: 347 (antibody, listed as Homo sapiens, V domains shown)
# VH: EVQLLESGGGLVRPGGSLRLSCAASEFTFRYDYHVWVRQAPGKGLEWVSAISGSGGSTYYADSVKSRFTISRDNSKNTLYLQMNSLRAEDTAVYYCARLRADLGLYMDLWGRGTLVTVSS
# VL: B4 VL with T19A, I20V, N31S, A57S, V59I, K106R
# modifications: C0021181
# B7: C0021133: anti-ARG2 antibody, VH SEQ ID NO: 192, VL SEQ ID NO: 197 (antibody, listed as Homo sapiens, V domains shown)
# VH: B6 VH with R13Q, E26G, Y33H, S66G
# VL: B4 VL with I20V, N52T, S53T, E54V, R55L, T56S, A57S, V59I
# modifications: C0021133
# B8: C0021180: anti-ARG2 antibody, VH SEQ ID NO: 332, VL SEQ ID NO: 337 (antibody, listed as Homo sapiens, V domains shown)
# VH: B4 VH
# VL: QSVLTQPPTVSAAPGRKVTISCSGSSSNIGDHHVSWYQQLPGAAPKLLIYDTDHMASGIPDRFSGSRSGTSATLGITGLQTGDEADYYCGTWDSSLSALVFGGGTKLTVL
# modifications: C0021180
# B9: C0021139: anti-ARG2 antibody, VH SEQ ID NO: 212, VL SEQ ID NO: 217 (antibody, listed as Homo sapiens, V domains shown)
# VH: B6 VH with R13Q, E26G, R30Q, H34Q, S66G
# VL: B4 VL with A57S, V59I
# modifications: C0021139
# B10: C0021177: anti-ARG2 antibody, VH SEQ ID NO: 322, VL SEQ ID NO: 327 (antibody, listed as Homo sapiens, V domains shown)
# VH: B4 VH with I55A
# VL: B4 VL with V3E, S9T, V10A, N52T, S53T, E54V, R55L, T56S, A57S, V59I
# modifications: C0021177
# B11: C0021158: anti-ARG2 antibody, second generation lead, VH SEQ ID NO: 272, VL SEQ ID NO: 277 (antibody, listed as Homo sapiens, V domains shown)
# VH: B4 VH with S119P
# VL: B4 VL
# modifications: C0021158
# Molecular target: T1, human ARG1
# Assay: Bio-Layer Interferometry (OctetRED) binding, human ARG1
# Details: Fab analyte up to 120 nM, screening assay on anti-His surface
# Method: The affinity of binding between the Fab of C0020187 and human ARG2, cynomolgus ARG2 and human ARG1 was estimated using assays in which the biotinylated ARG antigen was captured on a streptavidin sensor tip. A fresh sensor tip was used for each measurement and no regeneration was used. A series of dilutions of the C0020187 Fab (3.25-240 nM) were individually placed in contact with the ligand surface for a sufficient amount of time to observe sensorgrams that could be fitted to an appropriate binding model with confidence (typically 5 minutes), followed by an appropriate length of dissociation time (typically 10 minutes). Blank reference (0 nM Fab) data were subtracted from each dataset to reduce the impact of any buffer artefacts or non-specific binding effects. An appropriate binding model was then fitted simultaneously to the data from each analyte titration using the Octet Evaluation software.
# (§1) The binding of affinity-matured antibodies to human ARG1 was also tested on the OctetRED system using a screening assay which stably captures […] as the ligand on an anti-His surface. The Fabs were typically tested in an analyte range of 1.8 to 120 nM, with an association time of 5 minutes and a dissociation time of 10 minutes. Sensors were regenerated using 10 mM glycine pH 1.5 after each cycle.
# as §1, with “Binding” for “The binding”, “the second-generation” for “affinity-matured”, “ARG” for “ARG1”, “were” for “were typically”, “as” for “in an”, “up” for “range of 1.8”
row,Molecule,"Results, binding to human ARG1 (BLI)"
1,B1,No binding observed
2,B2,No binding observed
3,B3,No binding observed
4,B4,No binding observed
5,B5,No binding observed
6,B6,No binding observed
7,B7,No binding observed
8,B8,No binding observed
9,B9,No binding observed
10,B10,No binding observed

# Molecular target: T2, ARG2
# Assay: T cell proliferation assay (BrdU, 96 hours) with exogenous ARG2, improved variant IgGs
# Type: cell-based
# Details: In Absence of rhARG2; 96 hours; hIgG1
# Method: This assay served to provide evidence of improved functional efficacy for each affinity-matured antibody in comparison to the parent IgG, C0020187 (FIG. 12).
# Lead optimisation clones were tested to an endpoint treatment time of 96 hours and the BrdU Cell Proliferation Kit (Roche, France; Cat: 11647229001) was used according to the manufacturer's instructions. R347 was used as the irrelevant control. All clones tested n=2.
# Leukocyte cones underwent Ficoll Plaque (GE, Sweden; Cat: 17-1440-02) gradient separation, PBMC's were extracted and pan T cell population isolated by negative selection using the Human T Cell Enrichment Kit (Stemcell Technologies, France; Cat: 19051) according to the manufacturer's instructions.
# 40000 cells/well were seeded in complete growth media (RMPI 1640, 5% Human Serum Albumin) into a 96 well clear TC treated microplate (Greiner-Bio One, Germany; Cat: 655180). T cells were activated by the addition of ImmunoCult CD3/CD28 (Stemcell Technologies, France; Cat: 10971) at a dilution of 1:40 directly into wells and the plate incubated 37° C., 5% CO2 for 45 minutes.
# To determine EC50's of test antibodies, a dilution series was created in sterile TBS/NaCl Buffer at 10× the final assay concentration added to the assay plate containing cells. Plate was incubated for 30 minutes at 37° C., 5% CO2.
# ARG2 was added to relevant wells of the plate at a final concentration of 15 μg/ml. The equivalent volume of ARG2 vehicle and test antibody vehicle was added to relevant control wells. The total volume in each well was 200 μl. Cells were treated with test antibodies for a total of 96 hours at 37° C., 5% CO2. Antibodies were tested alongside C0020187 (parent IgG) as a positive control and R347 (irrelevant isotype control antibody) as a negative control.
# Assessment of T cell proliferation was performed using the BrdU Cell Proliferation ELISA Kit (Roche, Germany; Cat: 000000011647229001). BrdU labelling reagent was added after 78 hours of antibody treatment and the plate further incubated for 18 hours at 37° C., 5% CO2. The remainder of the assay was performed according to the manufacturer's instructions.
# Calculated data was expressed as % of control (Equation 3) and graphical plots were constructed using a four parameter fit and EC50's determined using model 205 in XLFit (IDBS, UK).
# All test sample data was corrected for background (mean of no cell control)
# % Control=100*((Test Sample−Mean Positive Control)/(Mean Negative Control−Mean Positive Control)) Equation 3:
# Mean Positive Control=T Cells in absence of ARG2
# Mean Negative Control=T Cells in presence of ARG2
# This assay served to provide evidence of improved functional efficacy for each affinity-matured antibody in comparison to the parent IgG, C0020187 (FIG. 14, Table 19). R347 was used as the irrelevant control. All clones tested n=2. Reference section 2.9 for methodology.
Molecule,EC50 [nM],Maximum % Proliferation [%]
B1,< 0.9,99
B2,< 0.9,92
B3,< 0.9,101
B5,< 1,
B7,< 0.7,90
B9,< 1,84

# Same assay, conditions: In Absence of rhARG2; hIgG1; top conc 2 μM; n=2
Molecule,EC50 [nM],Maximum % Proliferation [%]
B1,< 0.9,93
B8,< 0.9,96
B10,< 0.9,90
B11,< 0.9,94
